Results from patent US20080146500A1, “Selective Vpac2 Receptor Peptide Agonists” (priority 2004, published 2008).
Ends that are not written are not given here. * marks the point of attachment. Hexanoyl = CCCCCC(=O)*

Legend:
[1] = Pharmacokinetic profiles of PEGylated peptides, plasma peptide by RIA; format: in vivo, Fisher 344 rats; conditions: rat, in vivo
Procedure: Pharmacokinetic profiles of PEGylated peptides. Healthy Fisher 344 rats (3 animals per group) are injected with 100 μg compound/kg (compound amount based on peptide content and dissolved in PBS buffer). […] PK parameters are then calculated using a model-independent method (WinNonlin Pro, Pharsight Corp., Mountain View, Calif., USA).

human VPAC2 [2] = target: T1, human VPAC2 (Homo sapiens, UniProt P41587); assay: Filter binding assay, membranes from stable VPAC2 cell line, 125I-labeled VIP tracer; conditions: read-out: Human receptor binding (IC50; nM) VPAC2
T1 construct: expressed in transfected cells
T1 sequence (P41587 24-438): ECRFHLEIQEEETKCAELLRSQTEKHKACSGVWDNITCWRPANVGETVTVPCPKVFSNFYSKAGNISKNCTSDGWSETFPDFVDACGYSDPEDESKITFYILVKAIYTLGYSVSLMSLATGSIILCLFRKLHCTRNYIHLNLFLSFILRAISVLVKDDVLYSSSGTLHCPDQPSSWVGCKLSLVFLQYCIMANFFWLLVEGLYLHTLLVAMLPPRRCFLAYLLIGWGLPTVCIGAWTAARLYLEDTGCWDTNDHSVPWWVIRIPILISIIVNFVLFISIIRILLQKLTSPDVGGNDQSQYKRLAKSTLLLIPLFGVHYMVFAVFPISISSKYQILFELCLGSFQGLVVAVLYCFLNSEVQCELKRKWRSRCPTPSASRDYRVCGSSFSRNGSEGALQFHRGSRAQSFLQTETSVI
Procedure: (§1) For this assay, the solutions and equipment include:
(§2) Presoak solution: 0.5% Polyethyleneamine in Aqua dest.
(§3) Buffer for flushing filter plates: 25 mM HEPES pH 7.4
(§4) Blocking buffer: 25 mM HEPES pH 7.4; 0.2% protease free BSA
(§5) Assay buffer: 25 mM HEPES pH 7.4; 0.5% protease free BSA
(§6) Dilution and assay plate: PS-Microplate, U form
(§7) Filtration Plate Multiscreen FB Opaque Plate; […] Type B Glasfiber filter
(§8) In order to prepare the filter plates, the presoak solution is aspirated by vacuum filtration. The plates are flushed twice with 200 μL flush buffer. 200 μL blocking buffer is added to the filter plate. The filter plate is then incubated with 200 μL presoak solution for 1 hour at room temperature.
(§9) The assay plate is filled with […] (2.5 μg) suspended in assay buffer, 25 μL compound (agonist) in assay buffer, and 25 μL tracer (about 40000 cpm) in assay buffer. The filled plate is incubated for 1 hour with shaking.
(§10) The transfer from assay plate to filter plate is conducted. The blocking buffer is aspirated by vacuum filtration and washed two times with flush buffer. 90 μL is transferred from the assay plate to the filter plate. The 90 μL transferred from assay plate is aspirated and washed three times with 200 μL flush buffer. The plastic support is removed. It is dried for 1 hour at 60° C. 30 μL Microscint is added. The count is performed.
(§11) Values reported are single results or the mean of two or more independent runs.

human VPAC2 [3] = target: T1, human VPAC2; assay: Alpha screen in vitro potency: human VPAC2-R mediated cAMP generation; format: cell-based; conditions: single results or mean of two or more independent runs
human VPAC1 = target: T2, human VPAC1 (Homo sapiens, UniProt P32241); assay: Filter binding assay, membranes from cells transiently transfected with human VPAC1, 125I-labeled VIP tracer; conditions: read-out: Human receptor binding (IC50; nM) VPAC1
T2 construct: expressed in transfected cells
T2 sequence (P32241 31-457): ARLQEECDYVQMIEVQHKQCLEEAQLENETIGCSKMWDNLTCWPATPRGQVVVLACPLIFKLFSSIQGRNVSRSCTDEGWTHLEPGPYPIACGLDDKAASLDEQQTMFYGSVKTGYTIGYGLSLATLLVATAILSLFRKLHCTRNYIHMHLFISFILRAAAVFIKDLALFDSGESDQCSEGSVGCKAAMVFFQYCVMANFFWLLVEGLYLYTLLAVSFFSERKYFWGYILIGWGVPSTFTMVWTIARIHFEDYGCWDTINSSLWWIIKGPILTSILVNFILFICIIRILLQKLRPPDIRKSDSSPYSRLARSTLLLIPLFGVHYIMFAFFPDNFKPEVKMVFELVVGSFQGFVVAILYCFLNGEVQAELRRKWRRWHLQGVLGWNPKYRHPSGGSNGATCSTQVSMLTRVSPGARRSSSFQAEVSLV
Procedure: as §1, §2, §3, §4, §5, §6, §7, §8, §9, §10, §11

[4] = Rat serum stability at 37 C, remaining active peptide estimated by EC50,4C/EC50,37C in CHO-VPAC2 cAMP assay
Procedure: The rat serum is stored at 4° C. until use and is used within two weeks.
On Day 0, two 100 μL aliquots of 10 μM peptide in rat serum are prepared by adding 10 μL peptide stock to 90 μL rat serum for each aliquot. 250 kIU aprotinin/mL is added to one of these aliquots. The aliquot is stored with aprotinin at 4° C. The aliquot is stored without aprotinin at 37° C. The aliquots are incubated for […].
On Day 1, after incubation of the aliquots prepared on day 0 for 24 hours, an incubation buffer containing PBS+1.3 mM CaCl2, 1.2 mM MgCl2, 2 mM glucose, and 0.25 mM IBMX is prepared. A plate with 11 serial 5× dilutions of peptide for the 4° C. and 37° C. aliquot is prepared for each peptide studied. […] The plate(s) are washed with cells twice in incubation buffer. The plates are allowed to hold 50 μL incubation media per well for 15 minutes. 50 μL solution per well is transferred to the cells from the plate prepared with 11 serial 5× dilutions of peptide for the 4° C. and 37° C. aliquot for each peptide studied, using the maximal concentrations that are indicated by the primary screen, in duplicate. This step dilutes the peptide concentration by a factor of two. The cells are incubated at room temperature for 30 minutes. The supernatant is removed. 40 μL/well of the DiscoveRx antibody/extraction buffer is added. The cells are incubated on the shaker (300 rpm) for 1 hour. Normal procedure with the DiscoveRx kit is followed. cAMP standards are included in column 12. EC50 values are determined from the cAMP assay data.

P217 (Hexanoyl-HSDAVFTDNYTRLRK(PEG 20 kDa)QVAAK(PEG 20 kDa)RYLQSIRNGGPSSGAPPPS) [Compound P217]
Cl/F [1]: 0.12 mL/min/kg | Tmax [1]: 20 h | T½ [1]: 49 h | Vd/F [1]: 0.421 L/kg

P246 (Hexanoyl-HSDAVFTDNYTRLRRQVAAK(PEG 40 kDa)RYLQSIRNGGPSSGAPPPS) [Agonist P246]
IC50 (human VPAC2 [2]): > 1000 nM | EC50 (human VPAC2 [3]): 398 nM | IC50 (human VPAC1): > 25000 nM

P219 (Hexanoyl-HSDAVFTDNYTRLRRQVAAK(PEG 20 kDa)RYLQSIRNGGPSSGAPPPS) [Compound P219]
Estimated 72 h stability (%) [4]: 45.6%

P247 (HSDAVFTDNYTRLRRQVAARKYLQSIRNGGPSSGAPPPS; not fully specified (residue 21, N-terminus)) [Agonist P247]
IC50 (human VPAC2 [2]): 353 nM | EC50 (human VPAC2 [3]): 133 nM | IC50 (human VPAC1): > 25000 nM

P219 (Hexanoyl-HSDAVFTDNYTRLRRQVAAK(PEG 20 kDa)RYLQSIRNGGPSSGAPPPS) [Agonist P219]
IC50 (human VPAC2 [2]): 67.9 nM | EC50 (human VPAC2 [3]): 25.5 nM | IC50 (human VPAC1): > 25000 nM

P247 (HSDAVFTDNYTRLRRQVAARKYLQSIRNGGPSSGAPPPS; not fully specified (residue 21, N-terminus)) [Compound P247]
Estimated 72 h stability (%) [4]: 16.7%
